# Data from paper PMC8092243, “Cryo-EM Structures of CusA Reveal a Mechanism of Metal-Ion Export” (mBio, 2021).
# B1: CusA heavy-metal efflux pump (natural protein, E. coli)
# chain: MIEWIIRRSVANRFLVLMGALFLSIWGTWTIINTPVDALPDLSDVQVIIKTSYPGQAPQIVENQVTYPLTTTMLSVPGAKTVRGFSQFGDSYVYVIFEDGTDPYWARSRVLEYLNQVQGKLPAGVSAELGPDATGVGWIYEYALVDRSGKHDLADLRSLQDWFLKYELKTIPDVAEVASVGGVVKEYQVVIDPQRLAQYGISLAEVKSALDASNQEAGGSSIELAEAEYMVRASGYLQTLDDFNHIVLKASENGVPVYLRDVAKVQIGPEMRRGIAELNGEGEVAGGVVILRSGKNAREVIAAVKDKLETLKSSLPEGVEIVTTYDRSQLIDRAIDNLSGKLLEEFIVVAVVCALFLWHVRSALVAIISLPLGLCIAFIVMHFQGLNANIMSLGGIAIAVGAMVDAAIVMIENAHKRLEEWQHQHPDATLDNKTRWQVITDASVEVGPALFISLLIITLSFIPIFTLEGQEGRLFGPLAFTKTYAMAGAALLAIVVIPILMGYWIRGKIPPESSNPLNRFLIRVYHPLLLKVLHWPKTTLLVAALSVLTVLWPLNKVGGEFLPQINEGDLLYMPSTLPGISAAEAASMLQKTDKLIMSVPEVARVFGKTGKAETATDSAPLEMVETTIQLKPQEQWRPGMTMDKIIEELDNTVRLPGLANLWVPPIRNRIDMLSTGIKSPIGIKVSGTVLADIDAMAEQIEEVARTVPGVASALAERLEGGRYINVEINREKAARYGMTVADVQLFVTSAVGGAMVGETVEGIARYPINLRYPQSWRDSPQALRQLPILTPMKQQITLADVADIKVSTGPSMLKTENARPTSWIYIDARDRDMVSVVHDLQKAIAEKVQLKPGTSVAFSGQFELLERANHKLKLMVPMTLMIIFVLLYLAFRRVGEALLIISSVPFALVGGIWLLWWMGFHLSVATGTGFIALAGVAAEFGVVMLMYLRHAIEAVPSLNNPQTFSEQKLDEALYHGAVLRVRPKAMTVAVIIAGLLPILWGTGAGSEVMSRIAAPMIGGMITAPLLSLFIIPAAYKLMWLHRHRVRK
# notes: CusA, heavy-metal efflux (HME) RND pump of Escherichia coli; the cusA gene cloned into pET15b; the cryo-EM models incorporate residues Ile-5 to Trp-1039; Homotrimer embedded in lipid nanodiscs, in the presence of Cu(I); The membrane scaffold protein MSP 1E3D1 of the nanodisc is not a studied partner; also called CusA membrane protein; CusA trimer
# Target: the molecule itself
# Assay: cryo-EM structure; CusA in lipid nanodiscs (MSP 1E3D1, E. coli total extract lipid), 0.7 mg/ml (2 uM), incubated with 20 uM Cu(I), 20 mM HEPES-NaOH pH 7.0; four trimer classes (EEE, EEB, EBB, BBB) from one sample
protein,measurement,value
B1,stoichiometry N,3
